B1: recombinant HC1 (rHC1), wild type; heavy chain 1 of inter-α-inhibitor (natural protein, human, UniProt P19827 35-672, looked up)
chain: SKSSEKRQAVDTAVDGVFIRSLKVNCKVTSRFAHYVVTSQVVNTANEAREVAFDLEIPKTAFISDFAVTADGNAFIGDIKDKVTAWKQYRKAAISGENAGLVRASGRTMEQFTIHLTVNPQSKVTFQLTYEEVLKRNHMQYEIVIKVKPKQLVHHFEIDVDIFEPQGISKLDAQASFLPKELAAQTIKKSFSGKKGHVLFRPTVSQQQSCPTCSTSLLNGHFKVTYDVSRDKICDLLVANNHFAHFFAPQNLTNMNKNVVFVIDISGSMRGQKVKQTKEALLKILGDMQPGDYFDLVLFGTRVQSWKGSLVQASEANLQAAQDFVRGFSLDEATNLNGGLLRGIEILNQVQESLPELSNHASILIMLTDGDPTEGVTDRSQILKNVRNAIRGRFPLYNLGFGHNVDFNFLEVMSMENNGRAQRIYEDHDATQQLQGFYSQVAKPLLVDVDLQYPQDAVLALTQNHHKQYYEGSEIVVAGRIADNKQSSFKADVQAHGEGQEFSITCLVDEEEMKKLLRERGHMLENHVERLWAYLTIQELLAKRMKVDREERANLSSQALQMSLDYGFVTPLTSMSIRGMADQDGLKPTIDKPSEDSPPLEMLGPRRTFVLSALQPSPTHSSSNTQRLPDRVTGVDTD

Columns and labels:
[1] = biological target: B1; assay: SPR
AUC [2] = biological target: the molecule itself; assay: AUC
AUC [3] = biological target: the molecule itself; assay: AUC; remark: listed apart in the source

Kd [1] [µM] | Binder | stoichiometry N (AUC [2]) | Kd (AUC [3]) [µM]
~0.0002 | vitronectin (natural protein, UniProt P04004 20-478, looked up) DQESCKGRCTEGFNVDKKCQCDELCSYYQSCCTDYTAECKPQVTRGDVFTMPEDEYTVYDDGEEKNNATVHEQVGGPSLTSDLQAQSKGNPEQTPVLKPEEEAPAPEVGASKPEGIDSRPETLHPGRPQPPAEEELCSGKPFDAFTDLKNGSLFAFRGQYCYELDEKAVRPGYPKLIRDVWGIEGPIDAAFTRINCQGKTYLFKGSQYWRFEDGVLDPDYPRNISDGFDGIPDNVDAALALPAHSYSGRERVYFFKGKQYWEYQFQHQPSQEECEGSSLSAVFEHFAMMQRDSWEDIFELLFWGRTSAGTRQPQFISRDWHGVPGQVDAAMAGRIYISGMAPRPSLAKKQRFRHRNRKGYRSQRGHSRGRNQNSRRPSRATWLSLFSSEESNLGANNYDDYRMDWLVPATCEPIQSVFFFSGDKYYRVNLRTRRVDTVDPPYPRSIAQYWLGCPAPGHL |  | 
 | B1 | 2 | 35.3
